Source: patent US20140086935A1 (Bayer, published 2014)

Legend:
rat TIMP-1 [1] = target: T1, rat TIMP-1 (rat, UniProt P30120 24-217); experiment: SPR (BIAcore), rat TIMP-1 on chip (500 RU), IgG1, bivalent fit (avidity)
Description: For affinity determination, monomeric fractions of affinity and SEC purified Fab fragments or purified IgG1 molecules were used. All experiments were conducted in HBS buffer at a flow rate of 20 μl/min at 25° C. on a BIAcore™ instrument. Antigens in 100 mM sodium acetate pH 5.0 were coupled to a CM 5 sensor chip using standard EDC-NHS coupling chemistry. […] All sensograms were fitted globally using BIA evaluation software. For monovalent Fab fragments a monovalent fit (Langmuir binding) and for IgGs a bivalent fit was applied.
Anti-rat TIMP-1 clone MS-BW-14 was chosen for the first in vivo study, and IgG₁ protein was produced by transient expression. Anti-human TIMP-1 clone MS-BW-3 was selected as a negative control IgG₁ and was also produced by transient expression. Purified IgG₁ proteins MS-BW-14 and MS-BW-3 were subjected to quality control in BIAcore™ and rat TIMP-1/rat MMP-13 assays. […] This increase in affinity for the IgG₁ is due to the avidity effects caused by binding of bivalent IgG₁ to immobilized rat TIMP-1 protein on the BIAcore™ chip.

rat TIMP-1 [2] = target: T1, rat TIMP-1; experiment: cell-based or functional assay

T1 sequence (P30120 24-217 limits assumed): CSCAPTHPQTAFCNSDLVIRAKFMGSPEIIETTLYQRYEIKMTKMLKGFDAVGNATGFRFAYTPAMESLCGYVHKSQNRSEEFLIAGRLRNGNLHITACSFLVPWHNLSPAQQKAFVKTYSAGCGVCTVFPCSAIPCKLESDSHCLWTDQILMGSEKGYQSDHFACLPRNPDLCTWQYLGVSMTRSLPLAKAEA

B1: MS-BW-14 IgG1 (antibody, V domains shown)
VH: QVQLVQSGAEVKKPGSSVKVSCKASGGTFSSYAISWVRQAPGQGLEWMGGIIPIFGTANYAQKFQGRVTITADESTSTAYMELSSLRSEDTAVYYCARWSDQSYHYYWHPYFDVWGQGTLVTVSS
VL: DIVLTQPPSVSGAPGQRVTISCSGSSSNIGSNYVSWYQQLPGTAPKLLIYDNNQRPSGVPDRFSGSKSGTSASLAITGLQSEDEADYYCQSWDLEPYVFGGGTKLTVL
notes: Variable regions of Fab MS-BW-14 cloned into human IgG1 vectors; also called IgG1 protein MS-BW-14; copies: 2 + 2
- Kd (rat TIMP-1 [1]): 0.2 nM
- IC50 (50 % reversal of the inhibition of rat MMP-13 by rat TIMP-1, fluorogenic peptide substrate assay) (rat TIMP-1 [2]): ~7 nM
